Experimental data taken from patent publication US20070105771A1 (Y S THERAPEUTICS, published 2007).

Tests used:
[1] = target: T1, human CD26-derived 13 mer peptide 74 (human); experiment: peptide microarray
T1 peptide: IYNGITDWVYEEE
Protocol: (§1) The overnight incubation was followed by three washings with each of PBS buffer pH 7.5 and water. The microarrays were then scanned using ArrayWorx-Microarray Scanner.
(§2) The SPOT recognition software package ArrayPro was used for data analysis. The mean of signal intensities from 3 identical subarrays on each microarray image was used for data evaluation.

[2] = target: T2, human CD26-derived 13 mer peptide 88 (human); experiment: peptide microarray
T2 peptide: FLAYAQFNDTEVP
Protocol: as §1, §2

[3] = target: T3, human CD26-derived 13 mer peptide 89 (human); experiment: peptide microarray
T3 peptide: AYAQFNDTEVPLI
Protocol: as §1, §2

[4] = target: T4, human CD26-derived 13 mer peptide 90 (human); experiment: peptide microarray
T4 peptide: AQFNDTEVPLIEY
Protocol: as §1, §2

[5] = target: T5, human CD26-derived 13 mer peptide 96 (human); experiment: peptide microarray
T5 peptide: YSFYSDESLQYPK
Protocol: as §1, §2

[6] = target: T6, human CD26-derived 13 mer peptide 99 (human); experiment: peptide microarray
T6 peptide: ESLQYPKTVRVPY
Protocol: as §1, §2

[7] = target: T7, human CD26-derived 13 mer peptide 100 (human); experiment: peptide microarray
T7 peptide: LQYPKTVRVPYPK
Protocol: as §1, §2

[8] = target: T8, human CD26-derived 13 mer peptide 102 (human); experiment: peptide microarray
T8 peptide: KTVRVPYPKAGAV
Protocol: as §1, §2

[9] = target: T9, human CD26-derived 13 mer peptide 103 (human); experiment: peptide microarray
T9 peptide: VRVPYPKAGAVNP
Protocol: as §1, §2

[10] = target: T10, human CD26-derived 13 mer peptide 104 (human); experiment: peptide microarray
T10 peptide: VPYPKAGAVNPTV
Protocol: as §1, §2

[11] = target: T11, human CD26-derived 13 mer peptide 105 (human); experiment: peptide microarray
T11 peptide: YPKAGAVNPTVKF
Protocol: as §1, §2

[12] = target: T12, human CD26-derived 13 mer peptide 106 (human); experiment: peptide microarray
T12 peptide: KAGAVNPTVKFFV
Protocol: as §1, §2

[13] = target: T13, human CD26-derived 13 mer peptide 108 (human); experiment: peptide microarray
T13 peptide: VNPTVKFFVVNTD
Protocol: as §1, §2

[14] = target: T14, human CD26-derived 13 mer peptide 109 (human); experiment: peptide microarray
T14 peptide: PTVKFFVVNTDSL
Protocol: as §1, §2

[15] = target: T15, human CD26-derived 13 mer peptide 110 (human); experiment: peptide microarray
T15 peptide: VKFFVVNTDSLSS
Protocol: as §1, §2

[16] = target: T16, human CD26-derived 13 mer peptide 111 (human); experiment: peptide microarray
T16 peptide: FFVVNTDSLSSVT
Protocol: as §1, §2

[17] = target: T17, human CD26-derived 13 mer peptide 112 (human); experiment: peptide microarray
T17 peptide: VVNTDSLSSVTNA
Protocol: as §1, §2

[18] = target: T18, human CD26-derived 13 mer peptide 113 (human); experiment: peptide microarray
T18 peptide: NTDSLSSVTNATS
Protocol: as §1, §2

[19] = target: T19, human CD26-derived 13 mer peptide 114 (human); experiment: peptide microarray
T19 peptide: DSLSSVTNATSIQ
Protocol: as §1, §2

[20] = target: T20, human CD26-derived 13 mer peptide 115 (human); experiment: peptide microarray
T20 peptide: LSSVTNATSIQIT
Protocol: as §1, §2

[21] = target: T21, human CD26-derived 13 mer peptide 116 (human); experiment: peptide microarray
T21 peptide: SVTNATSIQITAP
Protocol: as §1, §2

[22] = target: T22, human CD26-derived 13 mer peptide 117 (human); experiment: peptide microarray
T22 peptide: TNATSIQITAPAS
Protocol: as §1, §2

[23] = target: T23, human CD26-derived 13 mer peptide 118 (human); experiment: peptide microarray
T23 peptide: ATSIQITAPASML
Protocol: as §1, §2

[24] = target: T24, human CD26-derived 13 mer peptide 119 (human); experiment: peptide microarray
T24 peptide: SIQITAPASMLIG
Protocol: as §1, §2

[25] = target: T25, human CD26-derived 13 mer peptide 120 (human); experiment: peptide microarray
T25 peptide: QITAPASMLIGDH
Protocol: as §1, §2

[26] = target: T26, human CD26-derived 13 mer peptide 122 (human); experiment: peptide microarray
T26 peptide: PASMLIGDHYLCD
Protocol: as §1, §2

[27] = target: T27, human CD26-derived 13 mer peptide 130 (human); experiment: peptide microarray
T27 peptide: ATQERISLQWLRR
Protocol: as §1, §2

[28] = target: T28, human CD26-derived 13 mer peptide 9 (human); experiment: peptide microarray
T28 peptide: SDHEYLYKQENNI
Protocol: as §1, §2

[29] = target: T29, human CD26-derived 13 mer peptide 12 (human); experiment: peptide microarray
T29 peptide: YKQENNILVFNAE
Protocol: as §1, §2

[30] = target: T30, human CD26-derived 13 mer peptide 14 (human); experiment: peptide microarray
T30 peptide: NNILVFNAEYGNS
Protocol: as §1, §2

[31] = target: T31, human CD26-derived 13 mer peptide 18 (human); experiment: peptide microarray
T31 peptide: EYGNSSVFLENST
Protocol: as §1, §2

[32] = target: T32, human CD26-derived 13 mer peptide 19 (human); experiment: peptide microarray
T32 peptide: GNSSVFLENSTFD
Protocol: as §1, §2

[33] = target: T33, human CD26-derived 13 mer peptide 20 (human); experiment: peptide microarray
T33 peptide: SSVFLENSTFDEF
Protocol: as §1, §2

[34] = target: T34, human CD26-derived 13 mer peptide 21 (human); experiment: peptide microarray
T34 peptide: VFLENSTFDEFGH
Protocol: as §1, §2

[35] = target: T35, human CD26-derived 13 mer peptide 22 (human); experiment: peptide microarray
T35 peptide: LENSTFDEFGHSI
Protocol: as §1, §2

[36] = target: T36, human CD26-derived 13 mer peptide 23 (human); experiment: peptide microarray
T36 peptide: NSTFDEFGHSIND
Protocol: as §1, §2

[37] = target: T37, human CD26-derived 13 mer peptide 24 (human); experiment: peptide microarray
T37 peptide: TFDEFGHSINDYS
Protocol: as §1, §2

[38] = target: T38, human CD26-derived 13 mer peptide 25 (human); experiment: peptide microarray
T38 peptide: DEFGHSINDYSIS
Protocol: as §1, §2

[39] = target: T39, human CD26-derived 13 mer peptide 26 (human); experiment: peptide microarray
T39 peptide: FGHSINDYSISPD
Protocol: as §1, §2

[40] = target: T40, human CD26-derived 13 mer peptide 27 (human); experiment: peptide microarray
T40 peptide: HSINDYSISPDGQ
Protocol: as §1, §2

[41] = target: T41, human CD26-derived 13 mer peptide 42 (human); experiment: peptide microarray
T41 peptide: ASYDIYDLNKRQL
Protocol: as §1, §2

[42] = target: T42, human CD26-derived 13 mer peptide 44 (human); experiment: peptide microarray
T42 peptide: IYDLNKRQLITEE
Protocol: as §1, §2

[43] = target: T43, human CD26-derived 13 mer peptide 45 (human); experiment: peptide microarray
T43 peptide: DLNKRQLITEERI
Protocol: as §1, §2

[44] = target: T44, human CD26-derived 13 mer peptide 46 (human); experiment: peptide microarray
T44 construct: also called NKRQL1TEERIPN
T44 peptide: NKRQLITEERIPN
Protocol: as §1, §2

[45] = target: T45, human CD26-derived 13 mer peptide 47 (human); experiment: peptide microarray
T45 peptide: RQLITEERIPNNT
Protocol: as §1, §2

[46] = target: T46, human CD26-derived 13 mer peptide 49 (human); experiment: peptide microarray
T46 construct: also called TEERJPNNTQWVT
T46 peptide: TEERIPNNTQWVT
Protocol: as §1, §2

[47] = target: T47, human CD26-derived 13 mer peptide 51 (human); experiment: peptide microarray
T47 peptide: IPNNTQWVTWSPV
Protocol: as §1, §2

[48] = target: T48, human CD26-derived 13 mer peptide 61 (human); experiment: peptide microarray
T48 peptide: WNNDIYVKIEPNL
Protocol: as §1, §2

[49] = target: human CD26 on the cell surface (human, UniProt P27487 1-766); experiment: cell-based or functional assay
Chain of human CD26 on the cell surface (P27487 whole entry): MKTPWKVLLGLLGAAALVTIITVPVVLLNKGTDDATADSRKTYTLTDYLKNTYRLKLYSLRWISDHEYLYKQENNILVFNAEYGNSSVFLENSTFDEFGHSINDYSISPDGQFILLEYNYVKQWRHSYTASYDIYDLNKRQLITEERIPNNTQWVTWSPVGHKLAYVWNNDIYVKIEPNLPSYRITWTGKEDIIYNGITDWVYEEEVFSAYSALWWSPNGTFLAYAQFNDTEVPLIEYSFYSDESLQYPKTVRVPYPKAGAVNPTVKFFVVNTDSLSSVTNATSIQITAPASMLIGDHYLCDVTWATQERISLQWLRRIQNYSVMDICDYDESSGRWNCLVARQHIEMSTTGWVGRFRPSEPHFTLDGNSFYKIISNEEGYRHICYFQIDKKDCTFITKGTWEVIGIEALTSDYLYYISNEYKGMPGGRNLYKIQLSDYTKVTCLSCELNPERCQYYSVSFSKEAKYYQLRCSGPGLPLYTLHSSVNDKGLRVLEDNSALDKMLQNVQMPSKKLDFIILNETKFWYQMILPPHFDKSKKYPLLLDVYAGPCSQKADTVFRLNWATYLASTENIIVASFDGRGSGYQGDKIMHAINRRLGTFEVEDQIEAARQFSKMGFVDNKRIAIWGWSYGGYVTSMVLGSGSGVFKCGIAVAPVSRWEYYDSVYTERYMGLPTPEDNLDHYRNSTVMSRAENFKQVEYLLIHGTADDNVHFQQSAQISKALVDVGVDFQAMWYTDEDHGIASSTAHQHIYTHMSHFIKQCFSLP

[50] = target: T49, human CD26-derived 13 mer peptide 71 (human); experiment: peptide microarray
T49 peptide: TGKEDIIYNGITD
Protocol: as §1, §2

[51] = target: T50, human CD26-derived 13 mer peptide 87 (human); experiment: peptide microarray
T50 peptide: GTFLAYAQFNDTE
Protocol: as §1, §2

[52] = target: T51, human CD26-derived 13 mer peptide 16 (human); experiment: peptide microarray
T51 peptide: VFNAEYGNSSVFL
Protocol: as §1, §2

[53] = target: T52, human CD26-derived 13 mer peptide 32 (human); experiment: peptide microarray
T52 peptide: DGQFILLEYNYVK
Protocol: as §1, §2

B1: rhuMAb 409 (antibody, human IgG1, V domains shown)
VH: QVKLQESGPGLVQPSQTLSITCTVSGFSLTTYGVHWVRQSPGKGLEWLGVIWGGGRTDYDAAFISRLSISKDNSKSQVFFKMNSLQANDTAIYYCVRNRHDWFDYWGQGTTVTVSS
VL: DIQMTQSPSSLSASLGDRVTITCSASQGIRNSLNWYQQKPDGAVKLLIYYSSNLHSGVPSRFSGSGSGTDFSLTISNLEPEDIATYYCQQSIKLPFTFGSGTKLEIKR
notes: CM03 VH and VL with human IgG1 heavy chain constant region and human kappa constant region; also called X409
21.7%: percent inhibition, MTT assay, Jurkat CD26+ cells, 5 ug/ml [49]
19.7%: percent inhibition, MTT assay, Jurkat CD26+ cells, 2.5 ug/ml [49]
0: Mean Signal Value [1] | Mean Signal Value [2] | Mean Signal Value [3] | Mean Signal Value [4] | Mean Signal Value [5] | Mean Signal Value [6] | Mean Signal Value [7] | Mean Signal Value [8] | Mean Signal Value [9] | Mean Signal Value [10] | Mean Signal Value [11] | Mean Signal Value [12] | Mean Signal Value [13] | Mean Signal Value [14] | Mean Signal Value [15] | Mean Signal Value [16] | Mean Signal Value [17] | Mean Signal Value [18] | Mean Signal Value [19] | Mean Signal Value [20] | Mean Signal Value [21] | Mean Signal Value [22] | Mean Signal Value [23] | Mean Signal Value [24] | Mean Signal Value [25] | Mean Signal Value [26] | Mean Signal Value [28] | Mean Signal Value [29] | Mean Signal Value [30] | Mean Signal Value [31] | Mean Signal Value [32] | Mean Signal Value [33] | Mean Signal Value [34] | Mean Signal Value [35] | Mean Signal Value [36] | Mean Signal Value [37] | Mean Signal Value [38] | Mean Signal Value [39] | Mean Signal Value [40] | Mean Signal Value [41] | Mean Signal Value [42] | Mean Signal Value [43] | Mean Signal Value [44] | Mean Signal Value [45] | Mean Signal Value [46] | Mean Signal Value [47] | Mean Signal Value [48]
12.9%: percent inhibition, MTT assay, Jurkat CD26+ cells, 0.25 ug/ml [49]
10: Mean Signal Value [27]
14.7%: percent inhibition, MTT assay, Jurkat CD26+ cells, 0.5 ug/ml [49]
4.8%: percent inhibition, MTT assay, Jurkat CD26+ cells, 0.05 ug/ml [49]

B2: rhuMAb 420 (antibody, human IgG1, V domains shown)
VH: EVQLVESGGGVKQPGETLRLTCTASGFSLSTYGVHWVRQAPGKGLEWVGVIWGDGRTDYDAAFMSRVTISKDTSKSTVYLQMNSLRAEDTAVYYCMRNRHDWFDYWGQGTTVTVSS
VL: EIEMTQSPSSLSVSAGERATISCSASQDIRNSLNWYQQKPGQAPRLLIYYSSNLHTGVPARFSGSGSGTDFTLTISRLEPEDVAIYYCQQSNKLPLTFGSGTKVEIKR
notes: X420 VH and X380 VL with human IgG1 and human kappa constant regions; also called X420 (IgG1)
3.7%: percent inhibition, MTT assay, Jurkat CD26+ cells, 0.05 ug/ml [49]
9.2%: percent inhibition, MTT assay, Jurkat CD26+ cells, 0.5 ug/ml [49]
0: Mean Signal Value [50] | Mean Signal Value [51] | Mean Signal Value [9] | Mean Signal Value [11] | Mean Signal Value [15] | Mean Signal Value [16] | Mean Signal Value [19] | Mean Signal Value [21] | Mean Signal Value [23] | Mean Signal Value [24] | Mean Signal Value [25] | Mean Signal Value [28] | Mean Signal Value [30] | Mean Signal Value [52] | Mean Signal Value [31] | Mean Signal Value [32] | Mean Signal Value [34] | Mean Signal Value [35] | Mean Signal Value [36] | Mean Signal Value [37] | Mean Signal Value [38] | Mean Signal Value [39] | Mean Signal Value [40] | Mean Signal Value [53] | Mean Signal Value [42] | Mean Signal Value [43] | Mean Signal Value [44] | Mean Signal Value [45]
9.6%: percent inhibition, MTT assay, Jurkat CD26+ cells, 0.25 ug/ml [49]
15.9%: percent inhibition, MTT assay, Jurkat CD26+ cells, 5 ug/ml [49]
16.6%: percent inhibition, MTT assay, Jurkat CD26+ cells, 2.5 ug/ml [49]
